Measured values from patent US20090010987A1, “Methods and Devices for Reducing Tissue Damage After Ischemic Injury” (Conor Medsystems, Inc., priority 2005, published 2009).

Test: Retention of insulin bioactivity when delivered in PLGA
Assay type: physicochemical
Settings: delivered in poly(lactide-co-glycolide) (PLGA)
Text: Protein or peptide drugs can be human, non-human, recombinant or synthetic and can be the full length native form or an active fragment thereof. Preferably the insulin is a stable, short acting form which is resistant to radiation. Insulin in its crystalline form may be used for improved resistance to radiation. When the insulin is combined with a polymer, an agent may be added to preserve bioactivity. […] For substantially longer administration periods, a buffering agent such as hydroxyapatite may be used to maintain the pH as the polymer degrades to release acidic byproducts.

Insulin: hormone which improves glycolic metabolism and ATP production; anti-ischemic agent
period over which bioactivity is retained: at least 24 hours
